This is an account of results in paper PMC6633205, “Cus2 enforces the first ATP-dependent step of splicing by binding to yeast SF3b1 through a UHM–ULM interaction” (RNA, 2019).

In assay [1] the target is SF3b1 ULM5 (Homo sapiens) (UniProt O75533). The settings on record: cited from earlier work.
Assay [2] has as its target T1, Tat-SF1 (residues 1-360) (human, UniProt O43719 1-360).
T1 chain: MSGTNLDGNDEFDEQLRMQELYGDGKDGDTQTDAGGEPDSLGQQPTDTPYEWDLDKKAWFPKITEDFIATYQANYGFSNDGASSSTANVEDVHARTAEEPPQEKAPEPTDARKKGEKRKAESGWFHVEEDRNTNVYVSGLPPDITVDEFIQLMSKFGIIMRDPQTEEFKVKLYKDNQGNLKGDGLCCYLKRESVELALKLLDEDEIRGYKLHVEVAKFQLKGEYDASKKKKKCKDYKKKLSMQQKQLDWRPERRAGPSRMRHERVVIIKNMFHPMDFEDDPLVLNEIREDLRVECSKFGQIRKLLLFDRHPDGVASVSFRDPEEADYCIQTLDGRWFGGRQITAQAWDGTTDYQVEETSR
The experiment in a line: ITC. In general terms: Isothermal titration calorimetry measures the heat released or taken up as one component is titrated into another.

Assay [3] deals with T2, GB1-Cus2, full length, with N-terminal His-tag and GB1 solubility tag (S. cerevisiae, UniProt P53830 1-285).
T2 construct: also called full-length Cus2 protein; not shown: GB1, N-terminal, kept
T2 sequence (looked up): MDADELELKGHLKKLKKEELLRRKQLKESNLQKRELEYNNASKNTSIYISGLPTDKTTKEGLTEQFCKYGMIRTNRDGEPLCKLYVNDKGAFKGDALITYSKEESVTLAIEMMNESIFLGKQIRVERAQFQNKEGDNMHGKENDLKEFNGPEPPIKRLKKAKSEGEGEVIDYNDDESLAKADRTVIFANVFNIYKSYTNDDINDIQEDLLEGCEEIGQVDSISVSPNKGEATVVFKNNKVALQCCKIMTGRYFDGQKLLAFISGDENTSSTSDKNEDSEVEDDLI
The experiment in a line: pull-down; GST-fusion protein or GST (100 µg) immobilised on glutathione agarose, GB1-Cus2 (500 µg in 500 µL) added for 30 min; 100 mM NaCl, 25 mM HEPES pH 7.4, 10% glycerol, 0.1% NP-40; six washes; SDS-PAGE, Coomassie. The settings on record: both partners purified.

Assay [4] addresses T3, Cus2, full length, fused to the GAL4 DNA-binding domain (S. cerevisiae, UniProt P53830 1-285).
T3 sequence (looked up): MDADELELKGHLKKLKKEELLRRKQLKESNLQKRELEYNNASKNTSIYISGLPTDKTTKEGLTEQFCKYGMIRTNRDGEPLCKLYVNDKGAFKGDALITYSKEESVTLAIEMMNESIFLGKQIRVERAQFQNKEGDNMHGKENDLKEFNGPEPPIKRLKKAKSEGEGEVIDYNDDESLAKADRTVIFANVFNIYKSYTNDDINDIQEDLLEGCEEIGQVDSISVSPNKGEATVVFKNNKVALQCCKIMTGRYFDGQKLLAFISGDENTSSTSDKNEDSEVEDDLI
The experiment in a line: cell-based or functional assay.

The target in assay [5] is T4, Cus2 UHM (residues 177-269) (S. cerevisiae, UniProt P53830 177-269).
T4 construct: Expressed as a GST fusion from a pGEX-6p variant with a TEV cleavage site for the GST tag; also called isolated Cus2 UHM
T4 sequence (looked up): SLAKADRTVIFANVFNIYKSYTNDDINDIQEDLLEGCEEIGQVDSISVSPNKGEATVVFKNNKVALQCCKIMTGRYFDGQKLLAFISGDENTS
The experiment in a line: ITC; apparent; Cus2 or Tat-SF1 proteins titrated with Hsh155 ULM peptide (95-109); 50 mM NaCl, 25 mM HEPES pH 7.4, 0.2 mM TCEP; VP-ITC; three replicates. Particulars: both partners purified.

Assay [6] deals with T5, Cus2 D204K with C-terminal His-tag (S. cerevisiae, UniProt P53830 1-285, D204K).
T5 construct: also called D204K mutant Cus2; recombinant Cus2^D204K; source: expressed and purified the same as wild-type Cus2, at the University of California Berkeley QB3 MacroLab
T5 sequence (looked up): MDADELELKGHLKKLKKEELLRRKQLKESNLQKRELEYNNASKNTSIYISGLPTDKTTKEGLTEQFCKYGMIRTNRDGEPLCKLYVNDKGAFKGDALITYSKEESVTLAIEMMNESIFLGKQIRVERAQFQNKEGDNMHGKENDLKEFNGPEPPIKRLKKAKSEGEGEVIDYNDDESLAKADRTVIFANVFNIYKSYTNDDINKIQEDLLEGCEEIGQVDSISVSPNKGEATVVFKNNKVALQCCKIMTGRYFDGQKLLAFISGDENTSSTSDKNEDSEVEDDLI
Described as above. The settings on record: both partners purified.

Assay [7] addresses T6, Cus2, full length, with C-terminal His-tag (S. cerevisiae, UniProt P53830 1-285).
T6 construct: also called full-length Cus2; recombinant wild-type Cus2
T6 sequence (looked up): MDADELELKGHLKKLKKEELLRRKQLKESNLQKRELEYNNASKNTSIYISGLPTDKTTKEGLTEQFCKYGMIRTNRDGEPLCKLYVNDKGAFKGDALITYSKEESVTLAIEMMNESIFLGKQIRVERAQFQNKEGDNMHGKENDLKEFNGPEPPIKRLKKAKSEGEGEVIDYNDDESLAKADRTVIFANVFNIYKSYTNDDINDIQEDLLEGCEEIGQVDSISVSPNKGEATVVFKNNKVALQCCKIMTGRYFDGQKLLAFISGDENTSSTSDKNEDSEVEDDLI
The description is as above. Particulars: both partners purified.

The target in assay [8] is T7, Tat-SF1 (residues 1-360) (human, UniProt O43719 1-360).
T7 construct: lacks the divergent acidic C-terminal expansion; Expressed as a GST fusion from a pGEX-6p variant with a TEV cleavage site for the GST tag; also called recombinant Tat-SF1
T7 sequence (looked up): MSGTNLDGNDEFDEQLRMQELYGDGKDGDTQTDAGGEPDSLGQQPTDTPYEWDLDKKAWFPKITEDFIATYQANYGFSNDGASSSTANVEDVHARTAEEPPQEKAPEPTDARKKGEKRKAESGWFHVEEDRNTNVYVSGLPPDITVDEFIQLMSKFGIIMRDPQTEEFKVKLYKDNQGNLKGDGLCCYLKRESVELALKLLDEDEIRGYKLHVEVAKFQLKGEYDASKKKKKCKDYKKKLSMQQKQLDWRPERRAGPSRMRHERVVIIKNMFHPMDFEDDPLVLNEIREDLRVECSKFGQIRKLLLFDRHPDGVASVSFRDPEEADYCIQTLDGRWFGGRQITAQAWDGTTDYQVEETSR
The assay is described as above. The settings on record: both partners purified.

Tat-SF1 (from UniProt O43719): the Kd in assay [1] was 800 nM.

In the assay with Tat-SF1 (residues 1-360) [2], KRKSRWDETPASQMGGSTP [ULM5] registered a Kd of 800 nM.

Regarding ENTQDAVVPRKRKSRWDVKGYEPPDESSTAVKENSDSALVNVEG (domain or fragment, S. cerevisiae, UniProt P49955 86-129, looked up, also called ^GSTHsh155^ULM; Hsh155^ULM) [GST-Hsh155 (86-129)], the binding result in assay [3] is recorded as “binds”.

B1: SF3b1 ULM (protein)
chain: SQPPSKRKRRWDQTADQTPGATPKKLSSWDQAETPGHTPSLRWDETPGRAKGSETPGATPGSKIWDPTPSHTPAGAATPGRGDTPGHATPGHGGATSSARKNRWDETPKTERDTPGHGSGWAETPRTDRGGDSIGETPTPGASKRKSRWDETPAS
On to B1, for which the Kd with Tat-SF1 (residues 1-360) [2] was found to be 1800 nM.

B2: Hsh155 R100D, W101A fused to the GAL4 activation domain (natural protein, S. cerevisiae, UniProt P49955 1-971, looked up)
chain: MSHPIQFVNANNSDKSHQLGGQYSIPQDLRENLQKEAARIGENEKDVLQEKMETRTVQNREDSYHKRRFDMKFEPDSDTQTVTSSENTQDAVVPRKRKSDADVKGYEPPDESSTAVKENSDSALVNVEGIHDLMFFKPSDHKYFADVISKKPIDELNKDEKKERTLSMLLLKIKNGNTASRRTSMRILTDKAVTFGPEMIFNRLLPILLDRSLEDQERHLMIKTIDRVLYQLGDLTKPYVHKILVVAAPLLIDEDPMVRSTGQEIITNLSTVAGLKTILTVMRPDIENEDEYVRNVTSRAAAVVAKALGVNQLLPFINAACHSRKSWKARHTGIKIVQQIGILLGIGVLNHLTGLMSCIKDCLMDDHVPVRIVTAHTLSTLAENSYPYGIEVFNVVLEPLWKGIRSHRGKVLSSFLKAVGSMIPLMDPEYAGYYTTEAMRIIRREFDSPDDEMKKTILLVLQKCSAVESITPKFLREEIAPEFFQKFWVRRVALDRPLNKVVTYTTVTLAKKLGCSYTIDKLLTPLRDEAEPFRTMAVHAVTRTVNLLGTADLDERLETRLIDALLIAFQEQTNSDSIIFKGFGAVTVSLDIRMKPFLAPIVSTILNHLKHKTPLVRQHAADLCAILIPVIKNCHEFEMLNKLNIILYESLGEVYPEVLGSIINAMYCITSVMDLDKLQPPINQILPTLTPILRNKHRKVEVNTIKFVGLIGKLAPTYAPPKEWMRICFELLELLKSTNKEIRRSANATFGFIAEAIGPHDVLVALLNNLKVQERQLRVCTAVAIGIVAKVCGPYNVLPVIMNEYTTPETNVQNGVLKAMSFMFEYIGNMSKDYIYFITPLLEDALTDRDLVHRQTASNVITHLALNCSGTGHEDAFIHLMNLLIPNIFETSPHAIMRILEGLEALSQALGPGLFMNYIWAGLFHPAKNVRKAFWRVYNNMYVMYQDAMVPFYPVTPDNNEEYIEELDLVL
On to B2, for which, in assay [4], the “pre-mRNA coimmunoprecipitated with Lea1-TAP in the absence of ATP (ATP-independent pre-spliceosome formation) in Hsh155^RW-DA extract relative to wild-type extract” value was about 11 fold.

B3: Hsh155 ULM peptide (residues 95-109) (peptide, UniProt P49955 95-109, looked up)
peptide: RKRKSRWDVKGYEPP
notes: source: synthetic peptide, bought: Biomatik Corp. (98% purity)
The term stoichiometry N denotes the number of molecules, sites or subunits per partner or assembly. Turning to B3, the Kd in assay [5] came out at 18 nM; in assay [6], 1020 nM; in assay [7] it was 32 nM; in the assay with Tat-SF1 (residues 1-360) [8] it was 229 nM. Besides, the “stoichiometry N” value (in assay [5]; in assay [6]; in assay [7]; with Tat-SF1 (residues 1-360) [8]) was about 1 in each case.
